By IC50 is commonly meant the concentration at which inhibition is half-maximal. The Km is the substrate concentration at which the rate is half of its maximum. As usually defined, the kcat is the maximal rate divided by the concentration of active sites. Usually kcat/Km stands for the turnover number divided by the Michaelis constant.

Data on four compounds can be found in US7217865B2, “Transgenic high tryptophan plants” (Monsanto Technology LLC, priority 2001, dated 2007).

Data set [1] deals with Agrobacterium tumefaciens anthranilate synthase variant P293A, SEQ ID NO:63 (Agrobacterium fabrum, UniProt A9CI26, P293A). The data set can be described thus: Anthranilate synthase enzyme assay and kinetic analysis, P293A mutant. It is filed as biochemical. The source says: (§1) Site directed mutagenesis was used to generate ten single amino acid substitutions six sites. The mutations were introduced into the Agrobacterium tumefaciens AS in pMON34705 using the QuikChange™ Site-Directed Mutagenesis Kit (Stratagene). The primers used for site directed mutagenesis were SEQ ID NO:9–42 (FIG. 7; F=forward, R=reverse). Each primer sequence is specific for alteration of the nucleic acid at a specific location in the sequence and thus changing the encoded codon to code for a new amino acid. For example, S51C designates a change from serine to cysteine at amino acid position 51 in the Agrobacterium tumefaciens AS peptide sequence.
(§2) Following mutagenesis the sequence of the entire gene was reconfirmed and the variants expressed and purified from E. coli as described below for the wild type enzyme. The resultant plasmids comprising mutant Agrobacterium tumefaciens AS are suitably cloned into a plasmid for overproduction of protein using the T7 expression system as described in Example 1.
(§3) Agrobacterium tumefaciens AS wild type and mutant enzymes were expressed in E. coli as described in Example 1. The purification of all the Agrobacterium tumefaciens AS enzymes, including wild type and mutants therof, was performed at 4° C. The cells (approximate wet weight of 1 g) were suspended in 20 ml of purification buffer (50 mM potassium phosphate, pH […], 10 mM 2-mercaptoethanol, 10% glycerol) and lysed by ultrasonication (Branson sonifier Cell Disruptor, W185). Supernatant was collected after centrifugation of the homogenate at 20,000× g for 15 min. The supernatant was subjected to ammonium sulfate fractionation (30 to 65% saturation). The precipitate was collected after centrifugation at 20,000× g for […] and dissolved in 3 ml of the purification buffer and then loaded as a whole on an Econo-Pac 10DG desalting column, pre-equilibrated with the same buffer. Fractions containing the enzyme were detected by the developed assay and pooled. The pooled enzyme (4.3 mls) was loaded on a 10 ml DEAE Sephacel (Pharmacia Biotech) column (1.5×7.5 cm) equilibrated with the same buffer. The column was washed with 30 ml of the purification buffer and the enzyme was eluted with 30 ml of 50 mM NaCl in the same buffer. Fractions containing high AS activity were pooled and precipitated by 65% ammonium sulfate saturation and isolated and desalted as above. Fractions containing the enzyme were pooled and stored at −80° C.
(§4) The standard assay for Agrobacterium tumefaciens AS was performed at 25° C. in an assay buffer containing 100 mM potassium phosphate, pH 7.0, 1 0 mM MgCl2, 1 mM dithiothreitol, 200 μM chorismate and 10 mM L-glutamine. The reaction was started by adding 30 μl of enzyme to the reaction mixture and mixing. The formation of anthranilate was directly monitored by the absorbance increase at […] for 3 min. Initial rate of reaction was calculated as unit absorbance increase per second based on the slope of the absorbance change over the reaction time. Km for chorismate (Km^Cho) was determined in the total volume of 1 ml assay buffer containing 100 mM potassium phosphate, pH 7.0, 10 mM MgCl2, 1 mM dithiothreitol with 10 mM L-glutamine and varying the concentration of chorismate between 2.5–100 μM chorismate. […] Kinetic parameters and IC50 of AS were calculated after fitting the data to a non-linear regression program (GraFit).

Data set [2] has as its target Agrobacterium tumefaciens anthranilate synthase variant P293G, SEQ ID NO:64 (Agrobacterium fabrum, UniProt A9CI26, P293G). The data set can be described thus: Anthranilate synthase enzyme assay and kinetic analysis, P293G mutant. The format is biochemical.
Source text: as §1, §2, §3, §4

For data set [3], the target named is Agrobacterium tumefaciens anthranilate synthase variant V48F, SEQ ID NO:58 (Agrobacterium fabrum, UniProt A9CI26, V48F). The data set can be described thus: Anthranilate synthase enzyme assay and kinetic analysis, V48F mutant. The format is biochemical.
Source text: as §1, §2, §3, §4

The target in data set [4] is Agrobacterium tumefaciens anthranilate synthase variant S51C, SEQ ID NO:61 (Agrobacterium fabrum, UniProt A9CI26, S51C). The data set can be described thus: Anthranilate synthase enzyme assay and kinetic analysis, S51C mutant. The format is biochemical.
Source text: as §1, §2, §3, §4

The target in data set [5] is Agrobacterium tumefaciens anthranilate synthase variant V48Y, SEQ ID NO:59 (Agrobacterium fabrum, UniProt A9CI26, V48Y). Put plainly: Anthranilate synthase enzyme assay and kinetic analysis, V48Y mutant. The format is biochemical.
Source text: as §1, §2, §3, §4

Data set [6] has as its target Agrobacterium tumefaciens anthranilate synthase variant S50K, SEQ ID NO:69 (Agrobacterium fabrum, UniProt A9CI26, S50K). Put plainly: Anthranilate synthase enzyme assay and kinetic analysis, S50K mutant. The format is biochemical.
Source text: as §1, §2, §3, §4

The target in data set [7] is Agrobacterium tumefaciens anthranilate synthase variant S51F, SEQ ID NO:60 (Agrobacterium fabrum, UniProt A9CI26, S51F). Put plainly: Anthranilate synthase enzyme assay and kinetic analysis, S51F mutant. The format is biochemical.
Source text: as §1, §2, §3, §4

Data set [8] has as its target Agrobacterium tumefaciens anthranilate synthase variant N52F, SEQ ID NO:62 (Agrobacterium fabrum, UniProt A9CI26, N52F). The data set can be described thus: Anthranilate synthase enzyme assay and kinetic analysis, N52F mutant. It is filed as biochemical.
Source text: as §1, §2, §3, §4

Data set [9] concerns the target Agrobacterium tumefaciens anthranilate synthase (AgroAS), wild type, SEQ ID NO:4 (Agrobacterium fabrum, UniProt A9CI26). Put plainly: Anthranilate synthase enzyme assay and kinetic analysis, wild type. It is filed as biochemical. As to the method:
as §3
(§5) The standard assay for Agrobacterium tumefaciens AS was performed at 25° C. in an assay buffer containing 100 mM potassium phosphate, pH 7.0, 1 0 mM MgCl2, 1 mM dithiothreitol, 200 μM chorismate and 10 mM L-glutamine. The reaction was started by adding 30 μl of enzyme to the reaction mixture and mixing. The formation of anthranilate was directly monitored by the absorbance increase at […] for 3 min. Initial rate of reaction was calculated as unit absorbance increase per second based on the slope of the absorbance change over the reaction time. Km for chorismate (Km^Cho) was determined in the total volume of 1 ml assay buffer containing 100 mM potassium phosphate, pH 7.0, 10 mM MgCl2, 1 mM dithiothreitol with 10 mM L-glutamine and varying the concentration of chorismate between 2.5–100 μM chorismate. The Km for glutamine (Km^Gln) was determined in the total volume of 1 ml assay buffer containing 100 mM potassium phosphate, pH 7.0, 10 mM MgCl2, 1 mM dithiothreitol with 200 μM chorismate and varying the concentration of L-glutamine between 0.1–2 mM L-glutamine. IC50 for tryptophan (IC50TrP) was determined with in the total volume of 1 ml assay buffer containing 100 mM potassium phosphate, pH 7.0, 10 mM MgCl2, 1 mM dithiothreitol, 10 mM L-glutamine, 200 μM chorismate and varying the concentration of L-tryptophan between 0.1–10 mM L-tryptophan. Kinetic parameters and IC50 of AS were calculated after fitting the data to a non-linear regression program (GraFit).

In data set [10] the test system is C=C(O[C@@H]1C=C(C(=O)O)C=C[C@H]1O)C(=O)O. Described as above. It is filed as biochemical, Agrobacterium tumefaciens. As to conditions: other: wild type, 25° C., pH 7.0, 10 mM L-glutamine, 2.5–100 μM chorismate. The procedure: as §3, §5
The subject of data set [11] is NC(=O)CC[C@H](N)C(=O)O. The data set is described as above. The format is biochemical, Agrobacterium tumefaciens. As to conditions: other: wild type, pH 7.0, 200 μM chorismate, 0.1–2 mM L-glutamine, 25.0 °C. As to the method: as §3, §5
Data set [12] deals with C=C(O[C@@H]1C=C(C(=O)O)C=C[C@H]1O)C(=O)O. The data set can be described thus: Anthranilate synthase enzyme assay and kinetic analysis, V48F mutant. The format is biochemical, Agrobacterium tumefaciens. As to conditions: other: V48F, pH 7.0, 10 mM L-glutamine, 2.5–100 μM chorismate, 25.0 °C.
Source text: as §1, §2, §3, §4

In data set [13] the test system is NC(=O)CC[C@H](N)C(=O)O. The data set is described as above. It is filed as biochemical, Agrobacterium tumefaciens. The settings on record: other: V48F, pH 7.0, 200 μM chorismate, 0.1–2 mM L-glutamine, 25.0 °C.
Source text: as §1, §2, §3, §4

The test system of data set [14] is C=C(O[C@@H]1C=C(C(=O)O)C=C[C@H]1O)C(=O)O. Put plainly: Anthranilate synthase enzyme assay and kinetic analysis, V48Y mutant. The settings on record: other: V48Y, pH 7.0, 10 mM L-glutamine, 2.5–100 μM chorismate, 25.0 °C. The format is biochemical, Agrobacterium tumefaciens.
Source text: as §1, §2, §3, §4

In data set [15] the test system is NC(=O)CC[C@H](N)C(=O)O. The data set is described as above. The format is biochemical, Agrobacterium tumefaciens. The settings on record: other: V48Y, pH 7.0, 200 μM chorismate, 0.1–2 mM L-glutamine, 25.0 °C.
Source text: as §1, §2, §3, §4

Where two headings read alike, the source gives them in different places.

For the compound `N[C@@H](Cc1c[nH]c2ccccc12)C(=O)O` [L-tryptophan], the concentration for half-maximal inhibition (IC50) is 14 µM in data set [1]; 17 µM in data set [2]; 150 µM in data set [3]; 1500 µM in [4]; 650 µM in [5]; 0.1 µM in data set [6]. The 50% inhibitory concentration (IC50) is over 32000 µM in data set [7]; 41 µM in [8]; 5 µM in data set [9]; 5 µM in [9] (read-out: IC50^trp, wild type, Table J (5-MT resistant clones)).

For “Agrobacterium tumefaciens anthranilate synthase (AgroAS), wild type, SEQ ID NO:4 (Agrobacterium fabrum str. C58)”, in [10], the Michaelis constant (Km) came to 8.0 µM, the kcat stood at 0.43 s⁻¹ and the catalytic efficiency (kcat/Km) was found to be 53700 M⁻¹ s⁻¹. In addition, the Km in [11] came out at 110 µM.

For the compound “Agrobacterium tumefaciens anthranilate synthase variant V48F, SEQ ID NO:58 (Agrobacterium fabrum str. C58; V48F)”, in data set [12], the Km amounted to 4.5 µM, the catalytic constant (kcat) was determined as 0.24 s⁻¹ and the specificity constant (kcat/Km) was 53300 M⁻¹ s⁻¹. In addition, the Km in data set [13] is 80 µM.

As to “Agrobacterium tumefaciens anthranilate synthase variant V48Y, SEQ ID NO:59 (Agrobacterium fabrum str. C58; V48Y)”, in data set [14], the Michaelis-Menten constant (Km) came out at 4.2 µM, the kcat worked out at 0.18 s⁻¹ and the kcat/Km turned out to be 42800 M⁻¹ s⁻¹. For the same compound, the Michaelis-Menten constant (Km) in data set [15] came out at 100 µM.
